# Test results reported in patent publication US20040223970A1 (published 2004).
# B1: PDO5 #810 monoclonal antibody (antibody, V domains shown)
# VH: EVQLQQSGPELVKPGASMKISCKASGYSFTGYTMNWVKQSHGKNLEWIGLINPYNGGINYNQKFKGKATLTVDKSSSTAYMELLSLTSEDSAVYYCTRRAYYGNYGTMDYWGQGTSVTVSS
# VL: ENVLTQSPASMSASPGEKVTMTCSASSSVSYMHWYQQKSTTSPKLWIYDTSNLASGVPGRFSGSGSGNSYSLTISNMEAEDVATYYCFQGSGYPLTFGAGTKLELKR
# notes: also called clone 810; Clone 810 supernatant
# B2: PDO5 #811 monoclonal antibody (antibody, V domains shown)
# VH: QVQLQQPGAELVRPGASVKLSCKASGYTFTSYWLNWVRQRPGQGLEWIGMIDPSDSETHYNQMFKDKATLTVDKSSSTAYMQLSSLTSEDSAVYYCTSQGVPVPFDYWGQGTTLTVSS
# VL: DVVMTQTPLSLPVSLGDQASISCRSSQSLVHSNGNTYLHWYLQKPGQSPKLLIYRVSNRFSGVPDRFSGSGSGTDFTLKISRVEAEDLGVYFCSQSTHVPWTFGGGTKLEIKR
# notes: Mouse monoclonal antibody from a hybridoma, used as hybridoma supernatant; also called clone 811
# Biological target: T1, SLC15A2 (Solute carrier family 15 (H+/peptide transporter), member 2) (human, UniProt Q16348 1-729)
# T1 construct: Expressed from its cDNA on stably transfected 3T12 and Calu6 cells (FACS, saporin killing), and endogenous in human prostate sections (IHC); also called SLC15A2 protein; SLCA15A2
# T1 sequence: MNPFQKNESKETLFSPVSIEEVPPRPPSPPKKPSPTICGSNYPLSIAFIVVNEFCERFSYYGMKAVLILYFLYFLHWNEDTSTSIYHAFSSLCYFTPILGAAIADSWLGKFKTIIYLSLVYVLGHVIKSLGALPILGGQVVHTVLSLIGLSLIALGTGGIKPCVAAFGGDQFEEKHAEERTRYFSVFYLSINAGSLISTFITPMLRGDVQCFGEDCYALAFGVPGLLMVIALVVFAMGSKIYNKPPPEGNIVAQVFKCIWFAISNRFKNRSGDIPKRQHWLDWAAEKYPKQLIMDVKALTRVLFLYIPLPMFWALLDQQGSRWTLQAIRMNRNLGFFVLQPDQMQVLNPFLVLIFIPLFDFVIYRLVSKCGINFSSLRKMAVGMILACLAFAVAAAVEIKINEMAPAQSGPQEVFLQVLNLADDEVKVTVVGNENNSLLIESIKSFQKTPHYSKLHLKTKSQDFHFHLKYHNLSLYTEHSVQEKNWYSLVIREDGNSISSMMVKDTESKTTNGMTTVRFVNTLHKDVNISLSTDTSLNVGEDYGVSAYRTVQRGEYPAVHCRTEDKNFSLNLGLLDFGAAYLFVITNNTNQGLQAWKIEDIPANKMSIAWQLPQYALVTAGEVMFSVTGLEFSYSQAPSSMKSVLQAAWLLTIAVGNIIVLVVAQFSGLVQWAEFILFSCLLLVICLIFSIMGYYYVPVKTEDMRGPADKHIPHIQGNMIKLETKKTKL
# Experiment: FACS, hybridoma supernatant on SLC15A2 expressing cells
row,Binder,binding result
1,B1,binds
2,B2,binds
